The values below come from patent publication CN116178550A (BEIJING DONGFANG BIOTECH CO LTD, dated 2023).

The target of assay [1] is T1, LILRA6 (UniProt Q6PI73 24-447, limits assumed). Kind of assay: ELISA, protein coated 100 ng/well, MF-I at 50 μg/mL. In general terms: In an ELISA, binding on a coated surface is turned into a signal by an enzyme label.
Assay [2] has as its target T2, LILRB1 (UniProt Q8NHL6 24-461, limits assumed). The description is as above.
The target in assay [3] is T3, LILRB3 (UniProt O75022 24-443, limits assumed). The description is as above.
Assay [4] has as its target T4, LILRB4抗原 (人LILRB4蛋白胞外段) (human, UniProt Q8NHJ6 22-259).
T4 construct: extracellular domain; also called 白细胞免疫球蛋白样受体亚家族B成员4
Described as above.

Assay [5] addresses T5, LILRB5 (UniProt O75023 24-458, limits assumed). Described as above.
Assay [6] concerns the target T6, LILRA4 (UniProt P59901 24-446, limits assumed). The assay is described as above.
Assay [7] has as its target T7, LILRA3 (UniProt Q8N6C8 24-439). Described as above.
Assay [8] deals with T8, LILRA5 (UniProt A6NI73 42-268, limits assumed). The description is as above.
For assay [9], the target named is T9, LILRA2 (UniProt Q8N149 24-449, limits assumed). Described as above.
For assay [10], the target named is T10, LILRA1 (UniProt O75019 17-461, limits assumed). Described as above.
For assay [11], the target named is T11, LILRB2 (UniProt Q8N423 22-460, limits assumed). The description is as above.
Assay [12] addresses T4, LILRB4抗原 (人LILRB4蛋白胞外段). Kind of assay: ELISA, LILRB4 coated 100 ng/well, Goat Anti-Mouse IgG-HRP.
For assay [13], the target named is T12, 人单核细胞白血病细胞(THP-1)表面LILRB4 (human, UniProt Q8NHJ6 22-448).
T12 construct: whole, on cells; Endogenous LILRB4 on THP-1 cells; also called THP-1细胞表面的LILRB4
In words: flow cytometry on THP-1 cells, competition with 0.4 μg/mL FITC-labelled ApoE. On the technique in general: Flow cytometry measures light scatter and fluorescence of single cells or particles in a stream.

For assay [14], the target named is T1, LILRA6. Kind of assay: ELISA, protein coated 100 ng/well, Goat Anti-Mouse IgG-HRP.
Assay [15] addresses T2, LILRB1. Described as above.
Assay [16] concerns the target T3, LILRB3. The description is as above.
For assay [17], the target named is T5, LILRB5. The description is as above.
The target in assay [18] is T6, LILRA4. Described as above.
Assay [19] has as its target T7, LILRA3. The assay is described as above.
The target of assay [20] is T8, LILRA5. The description is as above.
Assay [21] has as its target T9, LILRA2. Described as above.
For assay [22], the target named is T10, LILRA1. Described as above.
For assay [23], the target named is T11, LILRB2. Described as above.
The target of assay [24] is T12, 人单核细胞白血病细胞(THP-1)表面LILRB4. In words: cell-based or functional assay.

T8 sequence (A6NI73 42-268 limits assumed): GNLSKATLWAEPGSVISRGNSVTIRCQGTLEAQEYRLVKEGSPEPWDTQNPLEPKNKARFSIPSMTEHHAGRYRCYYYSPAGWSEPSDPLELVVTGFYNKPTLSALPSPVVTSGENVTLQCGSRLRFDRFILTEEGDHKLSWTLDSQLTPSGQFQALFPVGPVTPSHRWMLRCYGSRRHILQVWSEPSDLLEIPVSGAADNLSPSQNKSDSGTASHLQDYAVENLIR
T2 sequence (Q8NHL6 24-461 limits assumed): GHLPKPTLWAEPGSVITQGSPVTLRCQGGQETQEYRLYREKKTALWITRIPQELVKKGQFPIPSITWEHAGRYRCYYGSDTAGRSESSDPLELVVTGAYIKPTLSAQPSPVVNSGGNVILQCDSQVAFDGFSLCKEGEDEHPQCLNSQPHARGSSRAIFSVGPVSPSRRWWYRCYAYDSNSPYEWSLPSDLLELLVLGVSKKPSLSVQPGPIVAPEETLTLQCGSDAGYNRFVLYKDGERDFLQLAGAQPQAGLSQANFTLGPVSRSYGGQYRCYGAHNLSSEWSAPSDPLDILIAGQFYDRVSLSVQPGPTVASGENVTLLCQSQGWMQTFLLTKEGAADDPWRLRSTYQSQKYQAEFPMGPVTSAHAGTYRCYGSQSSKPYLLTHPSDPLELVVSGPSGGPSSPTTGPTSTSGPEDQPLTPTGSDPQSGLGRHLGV
T6 sequence (P59901 24-446 limits assumed): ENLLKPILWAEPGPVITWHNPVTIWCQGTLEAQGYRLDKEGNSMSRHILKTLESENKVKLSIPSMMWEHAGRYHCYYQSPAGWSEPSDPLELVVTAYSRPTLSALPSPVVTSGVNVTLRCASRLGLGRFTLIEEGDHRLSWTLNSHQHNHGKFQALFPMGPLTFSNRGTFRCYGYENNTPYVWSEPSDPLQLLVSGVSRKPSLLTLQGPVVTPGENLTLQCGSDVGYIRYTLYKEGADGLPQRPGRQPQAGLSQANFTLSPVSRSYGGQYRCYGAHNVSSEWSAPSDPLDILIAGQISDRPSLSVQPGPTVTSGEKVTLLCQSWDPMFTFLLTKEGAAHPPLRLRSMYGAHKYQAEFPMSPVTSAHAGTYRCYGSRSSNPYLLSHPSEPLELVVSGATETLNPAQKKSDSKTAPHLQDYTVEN
T7 sequence (Q8N6C8 24-439 limits assumed): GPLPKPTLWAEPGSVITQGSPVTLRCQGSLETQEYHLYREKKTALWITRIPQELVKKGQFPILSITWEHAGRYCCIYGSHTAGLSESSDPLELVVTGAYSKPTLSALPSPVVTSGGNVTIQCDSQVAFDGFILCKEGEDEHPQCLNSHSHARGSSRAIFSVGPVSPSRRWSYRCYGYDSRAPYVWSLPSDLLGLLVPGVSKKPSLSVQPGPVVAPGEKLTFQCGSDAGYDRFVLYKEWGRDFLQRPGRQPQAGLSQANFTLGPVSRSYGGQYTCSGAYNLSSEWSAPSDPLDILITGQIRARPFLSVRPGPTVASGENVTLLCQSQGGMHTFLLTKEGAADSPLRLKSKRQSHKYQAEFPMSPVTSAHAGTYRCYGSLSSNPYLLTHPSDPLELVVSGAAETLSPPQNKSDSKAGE
T1 sequence (Q6PI73 24-447 limits assumed): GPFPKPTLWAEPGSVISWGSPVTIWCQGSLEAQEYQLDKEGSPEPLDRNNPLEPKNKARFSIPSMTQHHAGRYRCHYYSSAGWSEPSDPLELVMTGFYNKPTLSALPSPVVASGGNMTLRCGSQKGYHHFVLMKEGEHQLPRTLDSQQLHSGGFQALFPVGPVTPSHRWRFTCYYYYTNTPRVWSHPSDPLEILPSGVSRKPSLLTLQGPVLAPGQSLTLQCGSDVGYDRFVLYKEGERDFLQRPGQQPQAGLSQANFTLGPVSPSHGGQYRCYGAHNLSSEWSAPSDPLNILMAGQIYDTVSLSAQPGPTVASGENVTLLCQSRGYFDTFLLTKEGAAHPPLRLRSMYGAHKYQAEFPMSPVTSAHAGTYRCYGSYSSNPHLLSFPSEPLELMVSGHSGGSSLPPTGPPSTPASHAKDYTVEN
T10 sequence (O75019 17-461 limits assumed): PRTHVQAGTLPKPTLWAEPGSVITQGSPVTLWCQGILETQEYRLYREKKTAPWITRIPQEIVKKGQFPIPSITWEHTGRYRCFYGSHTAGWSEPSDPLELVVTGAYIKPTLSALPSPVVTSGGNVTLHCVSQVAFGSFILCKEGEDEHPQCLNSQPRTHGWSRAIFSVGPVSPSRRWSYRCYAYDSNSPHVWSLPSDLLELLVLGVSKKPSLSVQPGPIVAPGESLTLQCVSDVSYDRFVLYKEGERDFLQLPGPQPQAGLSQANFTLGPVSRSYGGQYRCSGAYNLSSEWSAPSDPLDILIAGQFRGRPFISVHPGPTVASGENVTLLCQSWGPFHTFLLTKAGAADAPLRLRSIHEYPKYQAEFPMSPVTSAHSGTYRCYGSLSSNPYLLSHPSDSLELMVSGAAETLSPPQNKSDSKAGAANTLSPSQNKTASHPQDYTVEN
T5 sequence (O75023 24-458 limits assumed): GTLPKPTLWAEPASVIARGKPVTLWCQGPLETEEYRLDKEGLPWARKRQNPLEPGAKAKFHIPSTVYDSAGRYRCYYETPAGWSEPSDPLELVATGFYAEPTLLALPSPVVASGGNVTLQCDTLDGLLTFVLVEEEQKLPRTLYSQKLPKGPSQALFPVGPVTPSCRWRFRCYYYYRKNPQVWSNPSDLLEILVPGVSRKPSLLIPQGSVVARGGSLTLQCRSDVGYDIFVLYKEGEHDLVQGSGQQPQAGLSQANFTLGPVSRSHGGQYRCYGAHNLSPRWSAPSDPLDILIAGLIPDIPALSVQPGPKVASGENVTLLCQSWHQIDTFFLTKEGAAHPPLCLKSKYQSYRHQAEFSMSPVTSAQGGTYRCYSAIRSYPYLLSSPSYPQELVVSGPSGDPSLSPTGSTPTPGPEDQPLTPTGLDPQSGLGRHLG
T3 sequence (O75022 24-443 limits assumed): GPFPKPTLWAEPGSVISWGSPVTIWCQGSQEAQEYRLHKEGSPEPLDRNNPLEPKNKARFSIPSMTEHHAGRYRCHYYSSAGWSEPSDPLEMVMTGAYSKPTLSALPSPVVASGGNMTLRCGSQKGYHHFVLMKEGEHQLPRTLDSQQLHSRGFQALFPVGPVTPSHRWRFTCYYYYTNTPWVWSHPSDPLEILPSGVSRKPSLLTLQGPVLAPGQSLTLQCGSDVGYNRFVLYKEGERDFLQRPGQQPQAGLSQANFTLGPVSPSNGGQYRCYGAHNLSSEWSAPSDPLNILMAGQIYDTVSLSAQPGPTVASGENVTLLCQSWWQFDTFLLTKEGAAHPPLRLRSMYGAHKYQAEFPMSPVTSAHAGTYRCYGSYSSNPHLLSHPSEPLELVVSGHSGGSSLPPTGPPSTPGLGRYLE
T11 sequence (Q8N423 22-460 limits assumed): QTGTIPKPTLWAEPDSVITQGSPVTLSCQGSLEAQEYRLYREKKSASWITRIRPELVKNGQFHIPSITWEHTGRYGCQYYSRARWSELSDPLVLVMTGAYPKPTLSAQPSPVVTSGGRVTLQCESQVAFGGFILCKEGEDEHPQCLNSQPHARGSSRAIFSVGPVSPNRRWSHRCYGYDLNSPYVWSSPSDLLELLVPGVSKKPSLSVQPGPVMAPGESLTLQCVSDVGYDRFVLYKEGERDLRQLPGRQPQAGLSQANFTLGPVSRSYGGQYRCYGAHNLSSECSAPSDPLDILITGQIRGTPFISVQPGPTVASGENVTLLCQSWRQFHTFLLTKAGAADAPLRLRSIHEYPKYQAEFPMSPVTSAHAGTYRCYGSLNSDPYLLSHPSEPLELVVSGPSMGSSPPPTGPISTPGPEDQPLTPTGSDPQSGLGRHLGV
T9 sequence (Q8N149 24-449 limits assumed): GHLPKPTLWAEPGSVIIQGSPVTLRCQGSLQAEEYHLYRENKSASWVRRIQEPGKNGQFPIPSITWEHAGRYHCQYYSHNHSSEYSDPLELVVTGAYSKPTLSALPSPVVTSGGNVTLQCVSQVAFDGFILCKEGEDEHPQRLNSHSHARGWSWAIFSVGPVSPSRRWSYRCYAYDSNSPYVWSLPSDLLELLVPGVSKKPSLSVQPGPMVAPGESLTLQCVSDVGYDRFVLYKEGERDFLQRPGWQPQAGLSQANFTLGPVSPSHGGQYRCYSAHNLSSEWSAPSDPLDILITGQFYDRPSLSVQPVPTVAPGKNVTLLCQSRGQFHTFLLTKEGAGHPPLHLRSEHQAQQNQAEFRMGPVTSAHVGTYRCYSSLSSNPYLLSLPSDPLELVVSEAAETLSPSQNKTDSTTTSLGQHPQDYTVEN

B1: 抗LILRB4单克隆抗体MF-I (full antibody, mouse IgG1 heavy chain constant region and mouse Ck light chain constant region) (antibody, V domains shown)
VH: QVQLEQSGAELVKPGASVKLSCKASGYTFTNYWMHWVKQRHGQGLEWIGEINPSNGRTNYNEKFKTKATLTVDKSSSTAYMQLSSLTSEDSAVYYCAKNYRYDDWAMDYWGQGTSVTVSS
VL: DIVLTQSPSSMYASLGERVTITCKASEDINSYLSWFQQKPGKSPKTLIYRANRLVDGVPSRFSGSGSGQDYSLTISSLEYEDMGIYYCLQYDEIPPTFGAGTKLELKA
notes: also called MF-Ⅰ
For orientation: EC50 means the concentration needed to bring the measured effect to its halfway point. Read a high EC50 as a less potent agent. Broadly, the IC50 is the concentration that gives 50% inhibition. Consider B1, for which the “OD 450nm/630nm” value in assay [1] worked out at 0.112; in assay [2] it was 0.123; in assay [3], 0.18; in assay [4], 2.3; in assay [5] it was 0.012; in assay [6] it was 0.014. The “OD 450nm/630nm” value in [7] was 0.064; in assay [8], 0.012; in assay [9], 0.036; in [10] it was 0.111; in assay [11], 0.213. Also, it took 0.406 µg/mL to reach a half-maximal effect in assay [12] (EC50). Moreover, the IC50 in assay [13] turned out to be 10.5 µg/mL. Moreover, the binding result in assay [14], in [15], in assay [16], in [17], in assay [18] and in assay [19] was “no binding (tested: 50μg/mL)” each time. Moreover, the binding result in assay [20], in assay [21], in assay [22] and in [23] was “no binding (tested: 50μg/mL)” each time. In assay [24], the “IC50(μg/mL), 抑制THP-1分泌ARG1 (arginase activity in the supernatant, with 0.5 μg/mL ApoE)” value stood at 367 µg/mL.
